Here are results for eight molecules from article PMC4219657, “Structural and Mechanistic Basis of Zinc Regulation Across the E. coli Zur Regulon” (PLoS Biology, 2014).

For data set [1], the target named is T1, Zur WT (Escherichia coli, UniProt P0AC51 1-171).
T1 sequence: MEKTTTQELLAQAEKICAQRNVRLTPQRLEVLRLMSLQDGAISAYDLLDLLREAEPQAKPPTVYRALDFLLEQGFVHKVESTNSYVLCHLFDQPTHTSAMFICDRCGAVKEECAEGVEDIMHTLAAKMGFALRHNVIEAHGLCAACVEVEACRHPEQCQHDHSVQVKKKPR
In words: X-ray crystallography; Zn2+ (2 per monomer), 2.50 A; EMSA: 10 mM Tris pH 8.0, 10 mM NaCl, 100 mM K-glutamate, 167 mM KCl, 1.5 mM MgCl2, 1 mM CaCl2, 50 uM ZnSO4, 1 mM DTT, 0.1 ug/ml BSA, 2 ug/ml salmon sperm DNA, DNA <=45 pM, 22 C, 30 min. Conditions: protein: recombinant; chain copies: 4; 3' overhang 2 nt on both strands.

In data set [2] the target is T1, Zur WT. The data set is described as follows: X-ray crystallography; Zn2+; Br-DNA, 3.5 A; EMSA: 10 mM Tris pH 8.0, 10 mM NaCl, 100 mM K-glutamate, 167 mM KCl, 1.5 mM MgCl2, 1 mM CaCl2, 50 uM ZnSO4, 1 mM DTT, 0.1 ug/ml BSA, 2 ug/ml salmon sperm DNA, DNA <=45 pM, 22 C, 30 min. Conditions: protein: recombinant; chain copies: 4; 3' overhang 2 nt on both strands. (In EMSA bound probe runs differently from free probe, usually more slowly.)

Data set [3] has as its target T1, Zur WT. The data set is described as follows: EMSA; 50 uM ZnSO4; macroscopic Kd-app for two dimers; table footnote a not in material; EMSA: 10 mM Tris pH 8.0, 10 mM NaCl, 100 mM K-glutamate, 167 mM KCl, 1.5 mM MgCl2, 1 mM CaCl2, 50 uM ZnSO4, 1 mM DTT, 0.1 ug/ml BSA, 2 ug/ml salmon sperm DNA, DNA <=45 pM, 22 C, 30 min. Conditions: protein: recombinant; chain copies: 4; label: 5'-Cy5 on strand 1; blunt.

The target of data set [4] is T1, Zur WT. The data set is described as follows: EMSA; 50 uM ZnSO4; Kd1, first dimer; EMSA: 10 mM Tris pH 8.0, 10 mM NaCl, 100 mM K-glutamate, 167 mM KCl, 1.5 mM MgCl2, 1 mM CaCl2, 50 uM ZnSO4, 1 mM DTT, 0.1 ug/ml BSA, 2 ug/ml salmon sperm DNA, DNA <=45 pM, 22 C, 30 min. The note with it: protein: recombinant; chain copies: 4; label: 5'-Cy5 on strand 1; blunt.
The target in data set [5] is T1, Zur WT. The data set is described as follows: EMSA; 50 uM ZnSO4; macroscopic Kd-app for two dimers; EMSA: 10 mM Tris pH 8.0, 10 mM NaCl, 100 mM K-glutamate, 167 mM KCl, 1.5 mM MgCl2, 1 mM CaCl2, 50 uM ZnSO4, 1 mM DTT, 0.1 ug/ml BSA, 2 ug/ml salmon sperm DNA, DNA <=45 pM, 22 C, 30 min. The note with it: protein: recombinant; chain copies: 4; label: 5'-Cy5 on strand 1; blunt.

Another data set deals with T2, Zur D49A (Escherichia coli, UniProt P0AC51 1-171, D49A).
T2 sequence: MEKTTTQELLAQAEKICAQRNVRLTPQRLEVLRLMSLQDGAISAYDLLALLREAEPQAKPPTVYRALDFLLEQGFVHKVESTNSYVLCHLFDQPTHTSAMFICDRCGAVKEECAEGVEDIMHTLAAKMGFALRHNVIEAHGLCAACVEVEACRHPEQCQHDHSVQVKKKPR
In words: EMSA; 50 uM ZnSO4; Kd1, first dimer; EMSA: 10 mM Tris pH 8.0, 10 mM NaCl, 100 mM K-glutamate, 167 mM KCl, 1.5 mM MgCl2, 1 mM CaCl2, 50 uM ZnSO4, 1 mM DTT, 0.1 ug/ml BSA, 2 ug/ml salmon sperm DNA, DNA <=45 pM, 22 C, 30 min. Conditions: protein: recombinant; chain copies: 2; label: 5'-Cy5 on strand 1; blunt.

The next data set addresses T3, Zur R52A (Escherichia coli, UniProt P0AC51 1-171, R52A).
T3 sequence: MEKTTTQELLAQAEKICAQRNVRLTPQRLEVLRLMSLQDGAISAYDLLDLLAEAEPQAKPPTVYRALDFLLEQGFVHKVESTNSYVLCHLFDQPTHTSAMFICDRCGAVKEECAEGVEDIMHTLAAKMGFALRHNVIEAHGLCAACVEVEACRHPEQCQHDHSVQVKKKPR
The data set is described as above. The note with it: protein: recombinant; chain copies: 2; label: 5'-Cy5 on strand 1; blunt.

Data set [6] concerns the target T1, Zur WT. In words: EMSA; 50 uM ZnSO4; macroscopic Kd-app for two dimers, Hill ~2.1; EMSA: 10 mM Tris pH 8.0, 10 mM NaCl, 100 mM K-glutamate, 167 mM KCl, 1.5 mM MgCl2, 1 mM CaCl2, 50 uM ZnSO4, 1 mM DTT, 0.1 ug/ml BSA, 2 ug/ml salmon sperm DNA, DNA <=45 pM, 22 C, 30 min. The note with it: protein: recombinant; chain copies: 4; label: 5'-Cy5 on strand 1; blunt.
Data set [7] deals with the molecule itself. The data set is described as follows: crystal structure; Zn-loaded Zur with the 31 bp znuABC operator duplex (31mer2bpOH); hanging drop, 1.5 M ammonium sulfate, 0.1 M citrate pH 5.5, 4°C; refined to 2.50 Å.
Data set [8] deals with the molecule itself. In words: SEC; analytical gel filtration of WT Zur, C103S and C88S; elution volume of WT (10.9 ml) as reference; column and buffer not told. On the technique in general: Size exclusion chromatography separates by hydrodynamic size, large species first.

As usually defined, the stoichiometry N is a count of units in the complex or per binding partner.

B1: 31mer2bpOH (dsDNA)
DNA 1: AGAAGTGTGATATTATAACATTTCATGACTATG
DNA 2: TAGTCATGAAATGTTATAATATCACACTTCTCA
For the molecule B1, the binding result with Zur WT [1] is reported as “binds”.

B2: Br-31mer2bpOH (dsDNA)
DNA 1: AGAAGTGUGATATTATAACATUTCATGACTATG
DNA 2: TAGTCATGAAATGTTATAATATCACACTTCTCA
modifications: 5-bromo-dU at positions 8 and 22 of strand 1 (dU-Br)
As for B2, the binding result with Zur WT [2] was “binds”.

B3: PL31p 51 bp (dsDNA)
DNA 1: CCATCATTTTTACCTGTTATGTTATAACATAACCATAAAGATACATGCTGG
DNA 2: CCAGCATGTATCTTTATGGTTATGTTATAACATAACAGGTAAAAATGATGG
For the molecule B3, the Kd with Zur WT [3] is 2.5e-20 M^2.

B4: PpliG 51 bp (dsDNA)
DNA 1: CCATGAGTACGATGAACTGTTATAATATAACAATCCCTAACGGGAGAAGG
DNA 2: CCTTCTCCCGTTAGGGATTGTTATATTATAACAGTTCATCGTACTCATGG
Take B4: the Kd with Zur WT [4] is 28 nM; with Zur WT [5] it was 5.2e-16 M^2.

B5: PznuABC 51 bp (dsDNA)
DNA 1: CCGAATATGAGAAGTGTGATATTATAACATTTCATGACTACTGCAAGACGG
DNA 2: CCGTCTTGCAGTAGTCATGAAATGTTATAATATCACACTTCTCATATTCGG
Regarding B5, the Kd with Zur D49A came out at 2.1 nM; with Zur R52A it was 2.6 nM; in the data set with Zur WT [6], 8.2e-18 M^2.

B6: E. coli zinc uptake regulator (Zur), wild type (natural protein)
chain: MEKTTTQELLAQAEKICAQRNVRLTPQRLEVLRLMSLQDGAISAYDLLDLLREAEPQAKPPTVYRALDFLLEQGFVHKVESTNSYVLCHLFDQPTHTSAMFICDRCGAVKEECAEGVEDIMHTLAAKMGFALRHNVIEAHGLCAACVEVEACRHPEQCQHDHSVQVKKKPR
notes: Zinc uptake regulator Zur of Escherichia coli; the crystal model includes residues 5-152 of each of four chains (A-D); Zinc-loaded (two Zn2+ sites per monomer); no tag is named; also called EcZur; WTZur; source: E. coli BL21 (DE3), pET24d-based plasmid, purified (heparin column)
With B6, the “stoichiometry N” value in data set [7] amounted to 4.

B7: E. coli Zur site B mutant C88S (natural protein)
chain: MEKTTTQELLAQAEKICAQRNVRLTPQRLEVLRLMSLQDGAISAYDLLDLLREAEPQAKPPTVYRALDFLLEQGFVHKVESTNSYVLSHLFDQPTHTSAMFICDRCGAVKEECAEGVEDIMHTLAAKMGFALRHNVIEAHGLCAACVEVEACRHPEQCQHDHSVQVKKKPR
notes: Zinc uptake regulator Zur of Escherichia coli with C88S (zinc site B); also called B-site (C88S) mutant; source: E. coli BL21 (DE3), pET24d-based plasmid, purified (heparin column)
Turning to B7, the “stoichiometry N” value in [8] was found to be 2.

B8: PzinT 51 bp (dsDNA)
DNA 1: CCCATTTTGCTATATGTTACAATATAACATTACACATCATATACATTAAGG
DNA 2: CCTTAATGTATATGATGTGTAATGTTATATTGTAACATATAGCAAAATGGG
In the case of B8, the Kd with Zur WT [3] is 5.3e-20 M^2.
